From publication PMC2776356 (2009)

B1: wild-type GST-Nkd1 [human] / in vitro translated ^35[S]-labelled Dvl1 [modified: 35S-methionine label; 35S-methionine label] [human] (parent complex)
chain 1: MGKLHSKPAAVCKRRESPEGDSFAVSAAWARKGIEEWIGRQRCPGGVSGPRQLRLAGTIGRSTRELVGDVLRDTLSEEEEDDFRLEVALPPEKTDGLGSGDEKKMERVSEPCPGSKKQLKFEELQCDVSMEEDSRQEWTFTLYDFDNNGKVTREDITSLLHTIYEVVDSSVNHSPTSSKMLRVKLTVAPDGSQSKRSVLVNQADLQSARPRAETKPTEDLRSWEKKQRAPLRFQGDSRLEQSGCYHHCVDENIERRNHYLDLAGIENYTSQFGPGSPSVAQKSELPPRTSNPTRSRSHEPEAIHIPHRKPQGVDPASFHFLDTPIAKVSELQQRLRGTQDGSKHFVRSPKAQGKSVGVGHVARGARNKPPLGPAIPAVSPSAHLAASPALLPSLAPLGHKKHKHRAKESQQGCRGLQAPLASGGPVLGREHLRELPALVVYESQAGQPVQRHEHHHHHEHHHHYHHFYQT
chain 2: MAETKIIYHMDEEETPYLVKLPVAPERVTLADFKNVLSNRPVHAYKFFFKSMDQDFGVVKEEIFDDNAKLPCFNGRVVSWLVLAEGAHSDAGSQGTDSHTDLPPPLERTGGIGDSRPPSFHPNVASSRDGMDNETGTESMVSHRRERARRRNREEAARTNGHPRGDRRRDVGLPPDSASTALSSELESSSFVDSDEDGSTSRLSSSTEQSTSSRLIRKHKRRRRKQRLRQADRASSFSSITDSTMSLNIVTVTLNMERHHFLGISIVGQSNDRGDGGIYIGSIMKGGAVAADGRIEPGDMLLQVNDVNFENMSNDDAVRVLREIVSQTGPISLTVAKCWDPTPRSYFTVPRADPVRPIDPAAWLSHTAALTGALPRYGTSPCSSAVTRTSSSSLTSSVPGAPQLEEAPLTVKSDMSAVVRVMQLPDSGLEIRDRMWLKITIANAVIGADVVDWLYTHVEGFKERREARKYASSLLKHGFLRHTVNKITFSEQCYYVFGDLCSNLATLNLNSGSSGTSDQDTLAPLPHPAAPWPLGQGYPYQYPGPPPCFPPAYQDPGFSYGSGSTGSQQSEGSKSSGSTRSSRRAPGREKERRAAGAGGSGSESDHTAPSGVGSSWRERPAGQLSRGSSPRSQASATAPGLPPPHPTTKAYTVVGGPPGGPPVRELAAVPPELTGSRQSFQKAMGNPCEFFVDIM
B2: wild-type GST-Nkd1 [human] / in vitro translated ^35[S]-labelled Dvl3 [modified: 35S-methionine label; 35S-methionine label] [human] (parent complex)
chain 1: B1 chain 1
chain 2: MGETKIIYHLDGQETPYLVKLPLPAERVTLADFKGVLQRPSYKFFFKSMDDDFGVVKEEISDDNAKLPCFNGRVVSWLVSAEGSHPDPAPFCADNPSELPPPMERTGGIGDSRPPSFHPHAGGGSQENLDNDTETDSLVSAQRERPRRRDGPEHATRLNGTAKGERRREPGGYDSSSTLMSSELETTSFFDSDEDDSTSRFSSSTEQSSASRLMRRHKRRRRKQKVSRIERSSSFSSITDSTMSLNIITVTLNMEKYNFLGISIVGQSNERGDGGIYIGSIMKGGAVAADGRIEPGDMLLQVNEINFENMSNDDAVRVLREIVHKPGPITLTVAKCWDPSPRGCFTLPRSEPIRPIDPAAWVSHTAAMTGTFPAYGMSPSLSTITSTSSSITSSIPDTERLDDFHLSIHSDMAAIVKAMASPESGLEVRDRMWLKITIPNAFIGSDVVDWLYHNVEGFTDRREARKYASNLLKAGFIRHTVNKITFSEQCYYIFGDLCGNMANLSLHDHDGSSGASDQDTLAPLPHPGAAPWPMAFPYQYPPPPHPYNPHPGFPELGYSYGGGSASSQHSEGSRSSGSNRSGSDRRKEKDPKAGDSKSGGSGSESDHTTRSSLRGPRERAPSERSGPAASEHSHRSHHSLASSLRSHHTHPSYGPPGVPPLYGPPMLMMPPPPAAMGPPGAPPGRDLASVPPELTASRQSFRMAMGNPSEFFVDVM
B3: wild-type GST-Nkd1 [human] / in vitro translated ^35[S]-labelled Dvl2 [modified: 35S-methionine label; 35S-methionine label] [not stated (human or mouse cDNA cloned)] (parent complex)
chain 1: B1 chain 1
chain 2: MAGSSTGGGGVGETKVIYHLDEEETPYLVKIPVPAERITLGDFKSVLQRPAGAKYFFKSMDQDFGVVKEEISDDNARLPCFNGRVVSWLVSSDNPQPEMAPPVHEPRAELAPPAPPLPPLPPERTSGIGDSRPPSFHPNVSSSHENLEPETETESVVSLRRERPRRRDSSEHGAGGHRTGGPSRLERHLAGYESSSTLMTSELESTSLGDSDEEDTMSRFSSSTEQSSASRLLKRHRRRRKQRPPRLERTSSFSSVTDSTMSLNIITVTLNMEKYNFLGISIVGQSNERGDGGIYIGSIMKGGAVAADGRIEPGDMLLQVNDMNFENMSNDDAVRVLRDIVHKPGPIVLTVAKCWDPSPQAYFTLPRNEPIQPIDPAAWVSHSAALTGTFPAYPGSSSMSTITSGSSLPDGCEGRGLSVHTDMASVTKAMAAPESGLEVRDRMWLKITIPNAFLGSDVVDWLYHHVEGFPERREARKYASGLLKAGLIRHTVNKITFSEQCYYVFGDLSGGCESYLVNLSLNDNDGSSGASDQDTLAPLPGATPWPLLPTFSYQYPAPHPYSPQPPPYHELSSYTYGGGSASSQHSEGSRSSGSTRSDGGAGRTGRPEERAPESKSGSGSESEPSSRGGSLRRGGEASGTSDGGPPPSRGSTGGAPNLRAHPGLHPYGPPPGMALPYNPMMVVMMPPPPPPVPPAVQPPGAPPVRDLGSVPPELTASRQSFHMAMGNPSEFFVDVM

Variants of: B1
Test: GST-pulldown; parent: 1; read off a plot

Variant	ratio to parent
chain 1 MGKLHSKPAAVCKRRESPEGDSFAVSAAWARKGIEEWIGRQRCPGGVSGPRQLRLAGTIGRSTRELVGDVLRDTLSEEEEDDFRLEVALPPEKTDGLGSGDEKKMERVSEPCPGSKKQLKFEELQCDVSMEEDSRQEWTFTLYDFDNNGKVTREDITSLLHTIYEVVDSSVNHSPTSSKMLRVKLTVAPDGSQSKRSVLVNQADLQSARPRAETKPTEDLRSWEKKQRAPLRFQGDSRLEQSGCYHHCVDENIERRNHYLDLAGIENYTSQFGPGSPSVAQKSELPPHTSNPTRSRSHEPEAIHIPHRKPQGVDPASFHFLDTPIAKVSELQQRLRGTQDGSKHFVRSPKAQGKSVGVGHVARGARNKPPLGPAIPAVSPSAHLAASPALLPSLAPLGHKKHKHRAKESQQGCRGLQAPLASGGPVLGREHLRELPALVVYESQAGQPVQRHEHHHHHEHHHHYHHFYQT [chain 1 R288H]	~0.19

Variants of: B1
Test: yeast two-hybrid (quantitative ONPG assay); parent: 6.2; read off a plot

Variant	response [ONPG units]
chain 1 MGKLHSKPAAVCKRRESPEGDSFAVSAAWARKGIEEWIGRQRCPGGVSGPRQLRLAGTIGRSTRELVGDVLRDTLSEEEEDDFRLEVALPPEKTDGLGSGDEKKMERVSEPCPGSKKQLKFEELQCDVSMEEDSRQEWTFTLYDFDNNGKVTREDITSLLHTIYEVVDSSVNHSPTSSKMLRVKLTVAPDGSQSKRSVLVNQADLQSARPRAETKPTEDLRSWEKKQRAPLRFQGDSRLEQSGCYHHCVDENIERRNHYLDLAGIENYTSQFGPGSPSVAQKSELPPHTSNPTRSRSHEPEAIHIPHRKPQGVDPASFHFLDTPIAKVSELQQRLRGTQDGSKHFVRSPKAQGKSVGVGHVARGARNKPPLGPAIPAVSPSAHLAASPALLPSLAPLGHKKHKHRAKESQQGCRGLQAPLASGGPVLGREHLRELPALVVYESQAGQPVQRHEHHHHHEHHHHYHHFYQT [chain 1 R288H]	~2.4

Variants of: B2
Test: GST-pulldown; parent: 1; read off a plot

Variant	ratio to parent
chain 1 MGKLHSKPAAVCKRRESPEGDSFAVSAAWARKGIEEWIGRQRCPGGVSGPRQLRLAGTIGRSTRELVGDVLRDTLSEEEEDDFRLEVALPPEKTDGLGSGDEKKMERVSEPCPGSKKQLKFEELQCDVSMEEDSRQEWTFTLYDFDNNGKVTREDITSLLHTIYEVVDSSVNHSPTSSKMLRVKLTVAPDGSQSKRSVLVNQADLQSARPRAETKPTEDLRSWEKKQRAPLRFQGDSRLEQSGCYHHCVDENIERRNHYLDLAGIENYTSQFGPGSPSVAQKSELPPHTSNPTRSRSHEPEAIHIPHRKPQGVDPASFHFLDTPIAKVSELQQRLRGTQDGSKHFVRSPKAQGKSVGVGHVARGARNKPPLGPAIPAVSPSAHLAASPALLPSLAPLGHKKHKHRAKESQQGCRGLQAPLASGGPVLGREHLRELPALVVYESQAGQPVQRHEHHHHHEHHHHYHHFYQT [chain 1 R288H]	~0.7

Variants of: B2
Test: yeast two-hybrid (quantitative ONPG assay); parent: 4; read off a plot

Variant	response [ONPG units]
chain 1 MGKLHSKPAAVCKRRESPEGDSFAVSAAWARKGIEEWIGRQRCPGGVSGPRQLRLAGTIGRSTRELVGDVLRDTLSEEEEDDFRLEVALPPEKTDGLGSGDEKKMERVSEPCPGSKKQLKFEELQCDVSMEEDSRQEWTFTLYDFDNNGKVTREDITSLLHTIYEVVDSSVNHSPTSSKMLRVKLTVAPDGSQSKRSVLVNQADLQSARPRAETKPTEDLRSWEKKQRAPLRFQGDSRLEQSGCYHHCVDENIERRNHYLDLAGIENYTSQFGPGSPSVAQKSELPPHTSNPTRSRSHEPEAIHIPHRKPQGVDPASFHFLDTPIAKVSELQQRLRGTQDGSKHFVRSPKAQGKSVGVGHVARGARNKPPLGPAIPAVSPSAHLAASPALLPSLAPLGHKKHKHRAKESQQGCRGLQAPLASGGPVLGREHLRELPALVVYESQAGQPVQRHEHHHHHEHHHHYHHFYQT [chain 1 R288H]	~3

Variants of: B3
Test: GST-pulldown; parent: 1; read off a plot

Variant	ratio to parent
chain 1 MGKLHSKPAAVCKRRESPEGDSFAVSAAWARKGIEEWIGRQRCPGGVSGPRQLRLAGTIGRSTRELVGDVLRDTLSEEEEDDFRLEVALPPEKTDGLGSGDEKKMERVSEPCPGSKKQLKFEELQCDVSMEEDSRQEWTFTLYDFDNNGKVTREDITSLLHTIYEVVDSSVNHSPTSSKMLRVKLTVAPDGSQSKRSVLVNQADLQSARPRAETKPTEDLRSWEKKQRAPLRFQGDSRLEQSGCYHHCVDENIERRNHYLDLAGIENYTSQFGPGSPSVAQKSELPPHTSNPTRSRSHEPEAIHIPHRKPQGVDPASFHFLDTPIAKVSELQQRLRGTQDGSKHFVRSPKAQGKSVGVGHVARGARNKPPLGPAIPAVSPSAHLAASPALLPSLAPLGHKKHKHRAKESQQGCRGLQAPLASGGPVLGREHLRELPALVVYESQAGQPVQRHEHHHHHEHHHHYHHFYQT [chain 1 R288H]	~0.14

Variants of: B3
Test: yeast two-hybrid (quantitative ONPG assay); parent: 4.7; read off a plot

Variant	response [ONPG units]
chain 1 MGKLHSKPAAVCKRRESPEGDSFAVSAAWARKGIEEWIGRQRCPGGVSGPRQLRLAGTIGRSTRELVGDVLRDTLSEEEEDDFRLEVALPPEKTDGLGSGDEKKMERVSEPCPGSKKQLKFEELQCDVSMEEDSRQEWTFTLYDFDNNGKVTREDITSLLHTIYEVVDSSVNHSPTSSKMLRVKLTVAPDGSQSKRSVLVNQADLQSARPRAETKPTEDLRSWEKKQRAPLRFQGDSRLEQSGCYHHCVDENIERRNHYLDLAGIENYTSQFGPGSPSVAQKSELPPHTSNPTRSRSHEPEAIHIPHRKPQGVDPASFHFLDTPIAKVSELQQRLRGTQDGSKHFVRSPKAQGKSVGVGHVARGARNKPPLGPAIPAVSPSAHLAASPALLPSLAPLGHKKHKHRAKESQQGCRGLQAPLASGGPVLGREHLRELPALVVYESQAGQPVQRHEHHHHHEHHHHYHHFYQT [chain 1 R288H]	~2.5
